Reference: patent US20260184809A1 (Genmab, published 2026)
Residue numbers refer to the chain shown, from its start. Read-outs that look alike come from different tables or passages of the source.

Legend:
[1] = molecular target: T1, human EpCAM, full length, on cells (human, UniProt P16422 24-314); assay: flow cytometry on CHO-S cells transiently transfected with full length human EpCAM, PE anti-human IgG F(ab')2
T1 construct: also called hEpCAM; EpCAM on DiFi, HPAF-II, A549, OV-90-SC12 and MDA-MB-231_hCLDN6_hEpCAM cells
T1 sequence: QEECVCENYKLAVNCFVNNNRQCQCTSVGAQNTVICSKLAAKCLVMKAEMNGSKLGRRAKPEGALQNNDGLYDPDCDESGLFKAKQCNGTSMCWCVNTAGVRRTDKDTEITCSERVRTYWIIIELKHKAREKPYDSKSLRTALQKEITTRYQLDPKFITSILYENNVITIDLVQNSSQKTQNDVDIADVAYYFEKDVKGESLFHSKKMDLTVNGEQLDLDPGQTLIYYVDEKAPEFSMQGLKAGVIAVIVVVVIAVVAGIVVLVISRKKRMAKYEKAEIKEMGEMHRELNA
Method: (§1) Binding of EpCAM antibodies to CHO-S cells transiently transfected with full length human, cynomolgus monkey or mouse EpCAM was analyzed by flow cytometry. […] Cells were washed twice in FACS buffer, re-suspended in 20 μL FACS buffer supplemented with TO-PRO™-3 Iodide (diluted 1:20000; Invitrogen, cat. no. T3605) and analyzed on an iQue screener (Intellicyt Corporation, USA). Binding curves were analyzed by non-linear regression (sigmoidal dose-response with variable slope) using GraphPad Prism V8.4.1 software (GraphPad Software, San Diego, CA, USA).

[2] = molecular target: T1, human EpCAM, full length, on cells; assay: flow cytometry on DiFi cells, PE anti-human IgG F(ab')2
Method: (§2) Binding to the EpCAM-expressing human tumor cell lines DiFi, HPAF-II and A549 by bivalent EpCAM antibodies or bispecific antibodies carrying one EpCAM-binding arm was analyzed by flow cytometry. […] Next, cells were washed once (A-D) or twice (E) in FACS buffer, re-suspended in 100 μL FACS buffer and analyzed on a BD LSRFortessa FACS (BD Biosciences, USA), Celesta (BD Biosciences, USA) or iQue (Sartorius, Germany). Binding curves were analyzed using non-linear regression (sigmoidal dose-response with variable slope) using GraphPad Prism V7.02 software (GraphPad Software, San Diego, CA, USA).

[3] = molecular target: T1, human EpCAM, full length, on cells; assay: flow cytometry on HPAF-II cells, PE anti-human IgG F(ab')2
Method: as §2

[4] = molecular target: T1, human EpCAM, full length, on cells; assay: flow cytometry on A549 cells, PE anti-human IgG F(ab')2
Method: as §2

[5] = molecular target: T2, mouse EpCAM, full length, on transfected CHO-S cells (mouse, UniProt Q99JW5 24-315); assay: flow cytometry on CHO-S cells transiently transfected with full length mouse EpCAM, PE anti-human IgG F(ab')2
T2 sequence: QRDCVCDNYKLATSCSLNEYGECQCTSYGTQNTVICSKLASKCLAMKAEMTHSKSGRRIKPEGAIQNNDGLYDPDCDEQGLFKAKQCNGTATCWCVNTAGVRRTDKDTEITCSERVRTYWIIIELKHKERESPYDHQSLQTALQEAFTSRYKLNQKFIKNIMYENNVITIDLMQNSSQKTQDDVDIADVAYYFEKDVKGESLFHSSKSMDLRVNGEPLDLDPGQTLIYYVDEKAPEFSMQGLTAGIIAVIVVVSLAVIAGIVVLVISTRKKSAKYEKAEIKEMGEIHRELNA
Method: as §1

[6] = molecular target: T1, human EpCAM, full length, on cells; assay: flow cytometry on HPAF-II cells, PE anti-human IgG F(ab')2; remark: listed apart in the source
Method: as §2

[7] = molecular target: T1, human EpCAM, full length, on cells; assay: flow cytometry on DiFi cells, PE anti-human IgG F(ab')2; remark: listed apart in the source
Method: as §2

[8] = molecular target: T1, human EpCAM, full length, on cells; assay: as above; remark: listed apart in the source
Method: as §2

[9] = molecular target: T1, human EpCAM, full length, on cells; assay: flow cytometry on HPAF-II cells, PE anti-human IgG F(ab')2; remark: listed apart in the source
Method: as §2

[10] = molecular target: T1, human EpCAM, full length, on cells; assay: as above; remark: listed apart in the source
Method: as §2

[11] = molecular target: T1, human EpCAM, full length, on cells; assay: flow cytometry on DiFi cells, PE anti-human IgG F(ab')2; remark: listed apart in the source
Method: as §2

[12] = molecular target: T2, mouse EpCAM, full length, on …; assay: flow cytometry on CHO-S cells transiently transfected with full length mouse EpCAM, PE anti-human IgG F(ab')2; remark: listed apart in the source
Method: as §1

[13] = molecular target: T1, human EpCAM, full length, on cells; assay: flow cytometry on CHO-S cells transiently transfected with full length human EpCAM, PE anti-human IgG F(ab')2; remark: listed apart in the source
Method: as §1

B1: IgG1-EpCAM-UBS-54-FEAR (antibody, V domains shown)
VH: QVQLVQSGAEVKKPGSSVRVSCKASGGTFSSYAISWVRQAPGQGLEWMGGIIPIFGTANYAQKFQGRVTITADESTSTAYMELSSLRSEDTAVYYCARDPFLHYWGQGTLVTVSS
VL: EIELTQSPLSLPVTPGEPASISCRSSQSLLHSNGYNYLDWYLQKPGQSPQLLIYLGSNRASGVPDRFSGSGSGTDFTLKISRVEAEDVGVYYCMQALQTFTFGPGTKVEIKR
EC50 (read off the curve) [1]: ~0.04 µg/mL | EC50 (read off the curve) [2]: ~0.4 µg/mL | EC50 (read off the curve) [3]: ~0.2 µg/mL

B2: IgG1-EpCAM-A37-FEAR (antibody)
heavy: not shown
light: EIELTQSPGTLSLSPGERATLSCRASQTISNNYLAWYQQKRGQAPRLLIYAASSRATGIPDRFSGTGSGTDFTLTISRLEPEDFAVYYCAQGELYPRQFGGGTKLEIKRTVAAPSVFIFPPSDEQLKSGTASVVCLLNNFYPREAKVQWKVDNALQSGNSQESVTEQDSKDSTYSLSSTLTLSKADYEKHKVYACEVTHQGLSSPVTKSFNRGEC
EC50 (read off the curve) [1]: ~0.03 µg/mL | EC50 (read off the curve) [4]: ~0.2 µg/mL | EC50 (read off the curve) [5]: ~0.01 µg/mL | EC50 (read off the curve) [6]: ~0.1 µg/mL | EC50 (read off the curve) [7]: ~0.5 µg/mL

B3: IgG1-EpCAM-C52-FEAR (antibody, V domains shown)
VH: B1 VH with S16A, R19K, I52V
VL: EIELTQSPGTLSLSPGERATLSCRASQSVSSSYLAWYQQKPGQAPRLLIYGASSRATGIPDRFSGSGSGTDFTLTISRLEPEDFAVYYCAQGELYPRQFGGGTKLDIKR
EC50 (read off the curve) [8]: ~0.3 µg/mL | EC50 (read off the curve) [9]: ~0.07 µg/mL

B4: IgG1-EpCAM-323-A3-FEAR (antibody)
heavy: QIQLVQSGPELKKPGETVKISCKASGYTFTNYGMNWVRQASGEGLKWMGWINTYTGEPTYGEDFKGRFAFSLETSASTAYLQINNLKNEDTATYFCARFGNYVDYWGQGTTLTVSSASTKGPSVFPLAPSSKSTSGGTAALGCLVKDYFPEPVTVSWNSGALTSGVHTFPAVLQSSGLYSLSSVVTVPSSSLGTQTYICNVNHKPSNTKVDKRVEPKSCDKTHTCPPCPAPEFEGGPSVFLFPPKPKDTLMISRTPEVTCVVVAVSHEDPEVKFNWYVDGVEVHNAKTKPREEQYNSTYRVVSVLTVLHQDWLNGKEYKCKVSNKALPAPIEKTISKAKGQPREPQVYTLPPSREEMTKNQVSLTCLVKGFYPSDIAVEWESNGQPENNYKTTPPVLDSDGSFFLYSRLTVDKSRWQQGNVFSCSVMHEALHNHYTQKSLSLSPG
light: DIVMTQAAFSNPVTLGTSASISCRSSKNLLHSNGITYLYWYLQKPGQSPHLLIYQMSNLASGVPDRFSSSGSGTDFTLRISRVEAEDVGVYYCAQNLEIPRTFGGGTKLEIKRTVAAPSVFIFPPSDEQLKSGTASVVCLLNNFYPREAKVQWKVDNALQSGNSQESVTEQDSKDSTYSLSSTLTLSKADYEKHKVYACEVTHQGLSSPVTKSFNRGEC
notes: also called IgG1-323-A3-FEAR
EC50 (read off the curve) [10]: ~0.02 µg/mL | EC50 (read off the curve) [11]: ~0.08 µg/mL

B5: bsIgG1-b12-FEAL/EpCAM-323-A3-FEAR (bispecific antibody)
heavy 1: QVQLVQSGAEVKKPGASVKVSCQASGYRFSNFVIHWVRQAPGQRFEWMGWINPYNGNKEFSAKFQDRVTFTADTSANTAYMELRSLRSADTAVYYCARVGPYSWDDSPQDNYYMDVWGKGTTVIVSSASTKGPSVFPLAPSSKSTSGGTAALGCLVKDYFPEPVTVSWNSGALTSGVHTFPAVLQSSGLYSLSSVVTVPSSSLGTQTYICNVNHKPSNTKVDKRVEPKSCDKTHTCPPCPAPEFEGGPSVFLFPPKPKDTLMISRTPEVTCVVVAVSHEDPEVKFNWYVDGVEVHNAKTKPREEQYNSTYRVVSVLTVLHQDWLNGKEYKCKVSNKALPAPIEKTISKAKGQPREPQVYTLPPSREEMTKNQVSLTCLVKGFYPSDIAVEWESNGQPENNYKTTPPVLDSDGSFLLYSKLTVDKSRWQQGNVFSCSVMHEALHNHYTQKSLSLSPG
light 1: EIVLTQSPGTLSLSPGERATFSCRSSHSIRSRRVAWYQHKPGQAPRLVIHGVSNRASGISDRFSGSGSGTDFTLTITRVEPEDFALYYCQVYGASSYTFGQGTKLERKRTVAAPSVFIFPPSDEQLKSGTASVVCLLNNFYPREAKVQWKVDNALQSGNSQESVTEQDSKDSTYSLSSTLTLSKADYEKHKVYACEVTHQGLSSPVTKSFNRGEC
heavy 2: B4 heavy
light 2: B4 light
EC50 (read off the curve) [12]: ~0.05 µg/mL | EC50 (read off the curve) [13]: ~0.1 µg/mL
